The source of these data is patent publication CN115819596A.

The assay has as its target 食蟹猴CEACAM6蛋白 (cynomolgus CEACAM6 protein) (cynomolgus monkey). Kind of assay: ELISA, plate-coated cynomolgus CEACAM6 protein.

B1: UM05-L9 (antibody, human IgG1, kappa, V domains shown)
VH: QVQLQQSGPELVRPGVSVKISCKGSGYTFTDYAMHWVKQSHAKSLEWIGVISTYSGHTNYNQKFKGKAIMTVDKSSSTAYMDLARLTSEDSAIYYCVRGSTTAHYYTMDFWGQGTSVTVSS
VL: DIQMTQSPVSLSASVGETVTITCGASENIYGTLNWYQRKQGKSPQLLIYGATNLADGVSSRFSGSGSGRQYSLKISSLHPDDVATYYCQNVLSIPYTFGGGTKLEIKR
In turn, B1 registered a half-maximal effective concentration (EC50) of 0.463 nM.
